What was measured:
furin (human) [1] = target: furin (human) (UniProt P09958); experiment: enzyme inhibition kinetics (fluorogenic substrate); condition 3: 50 mM Hepes/NaOH pH 7.4, 300 mM NaCl, 2 mM CaCl2, 0.2% Triton X-100, 25 °C; substrate Ac-RR(Tle)KR-AMC; triplicates
furin (human) [2] = target: furin (human) (UniProt P09958); experiment: enzyme inhibition kinetics (fluorogenic substrate); condition 2: 50 mM Mes/NaOH pH 6.0, 300 mM NaCl, 2 mM CaCl2, 0.2% Triton X-100, 25 °C; substrate Ac-RR(Tle)KR-AMC; triplicates
[3] = target: furin (soluble, mature, active) (UniProt P09958); experiment: NMR, 2D 1H-15N HMBC of histidine side chains as a function of pH (600 MHz); conditions: pH 6.3-7.4; 278 K (~5 °C); 150 mM NaCl; 50 mM NaH2PO4/Na2HPO4 at each adjusted pH
furin (soluble, mature, active), sequence (P09958 whole entry): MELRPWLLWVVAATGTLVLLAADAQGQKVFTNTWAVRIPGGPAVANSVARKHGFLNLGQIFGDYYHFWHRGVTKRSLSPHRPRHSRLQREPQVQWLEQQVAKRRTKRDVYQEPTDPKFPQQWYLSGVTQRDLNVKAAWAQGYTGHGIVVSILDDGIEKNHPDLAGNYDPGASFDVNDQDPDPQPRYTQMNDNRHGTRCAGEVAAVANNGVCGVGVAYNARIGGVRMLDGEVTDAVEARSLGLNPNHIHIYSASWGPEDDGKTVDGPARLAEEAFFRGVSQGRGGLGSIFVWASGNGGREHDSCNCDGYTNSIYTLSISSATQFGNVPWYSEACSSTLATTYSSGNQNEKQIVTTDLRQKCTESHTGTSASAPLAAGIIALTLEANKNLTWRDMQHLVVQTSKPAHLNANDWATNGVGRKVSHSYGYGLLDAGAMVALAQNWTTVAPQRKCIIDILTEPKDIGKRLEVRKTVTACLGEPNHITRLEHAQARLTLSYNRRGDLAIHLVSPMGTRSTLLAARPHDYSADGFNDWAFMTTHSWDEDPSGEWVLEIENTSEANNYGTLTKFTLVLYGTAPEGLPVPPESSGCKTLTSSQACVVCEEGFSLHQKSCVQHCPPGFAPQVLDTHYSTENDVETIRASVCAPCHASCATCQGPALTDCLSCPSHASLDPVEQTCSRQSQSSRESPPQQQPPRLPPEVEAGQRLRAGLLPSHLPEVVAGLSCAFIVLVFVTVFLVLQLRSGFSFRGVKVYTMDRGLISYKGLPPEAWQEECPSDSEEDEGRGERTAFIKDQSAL

His85 = His85 (UniProt position 85, RRSAFHITKRL); experiment: NMR; conditions: 278 K (~5 °C); 150 mM NaCl plus 50 mM sodium phosphate; 50 mM NaH2PO4/Na2HPO4, 150 mM NaCl. The pH was set by dialysis into buffer of the adjusted pH, not by direct acid addition.; Isolated (furin-free) folded prodomain, 0.2 mM
His72 = His72 (UniProt position 72, HYLFKHKNHPR); experiment: NMR; conditions: 278 K (~5 °C); 150 mM NaCl plus 50 mM sodium phosphate; 50 mM NaH2PO4/Na2HPO4, 150 mM NaCl. The pH was set by dialysis into buffer of the adjusted pH, not by direct acid addition.; Isolated (furin-free) folded prodomain, 0.2 mM
His75 = His75 (UniProt position 75, FKHKNHPRRSR); experiment: NMR; conditions: 278 K (~5 °C); 150 mM NaCl plus 50 mM sodium phosphate; 50 mM NaH2PO4/Na2HPO4, 150 mM NaCl. The pH was set by dialysis into buffer of the adjusted pH, not by direct acid addition.; Isolated (furin-free) folded prodomain, 0.2 mM

Ki (furin (human) [1]) [nM] | Ki (furin (human) [2]) [nM] | Molecule | also measured
0.56 | 2.2 | PC1/3-prodomain mutant M1 (R78A) (from UniProt P29120 28-110) (domain or fragment) | 
0.73 | 0.88 | PC1/3-prodomain mutant M2 ((77)A-R-S-A-A) (from UniProt P29120 28-110) (domain or fragment) | 
0.139 |  | PC1/3-prodomain mutant M5 ((77)R-K-S-A-R) (from UniProt P29120 28-110) (domain or fragment) | 
 |  | PC1/3-prodomain, wild type (15N-labelled for NMR) | pKa, His72 of the PC1/3-prodomain (WT) [3]: 4.82 pH units; pKa, His75 of the PC1/3-prodomain (WT) [3]: 5.03 pH units; pKa, His85 of the PC1/3-prodomain (WT) [3]: 5.6 pH units
 |  | Proprotein convertase 1/3 (PC1/3, neuroendocrine convertase 1) prodomain, wild type (Homo sapiens) | pKa (His85): 5.60; pKa (His72): 4.82; pKa (His75): 5.03
0.101 | 0.14 | PC1/3-prodomain combination mutant M10 (M5 with His72Leu) (domain or fragment) GKRQFVNEWAAEIPGGPEAASAIAEELGYDLLGQIGSLENHYLFKLKNHPRKSARSAFHITKRLSDDDRVIWAEQQYEKERSKR | 

From paper PMC12405487
